Assay results reported in article PMC9312489, “Tertiary and Quaternary Structure Organization in GMP Synthetases: Implications for Catalysis” (Biomolecules, 2022).
Where a chain is given by its changes, count along the chain named. Numbers in names are those of the source.

B1: Native Plasmodium falciparum GMP synthetase (PfGMPSwt) (enzyme, UniProt Q8IJR9 1-555, looked up)
chain: MEGEEYDKILVLNFGSQYFHLIVKRLNNIKIFSETKDYGVELKDIKDMNIKGVILSGGPYSVTEAGSPHLKKEVFEYFLEKKIPIFGICYGMQEIAVQMNGEVKKSKTSEYGCTDVNILRNDNINNITYCRNFGDSSSAMDLYSNYKLMNETCCLFENIKSDITTVWMNHNDEVTKIPENFYLVSSSENCLICSIYNKEYNIYGVQYHPEVYESLDGELMFYNFAYNICKCKKQFDPIRYHELELKNIEKYKHDHYVIAAMSGGIDSTVAAAYTHKIFKERFFGIFIDNGLLRKNEAENVYTFLKSTFPDMNITKIDASENFLSNLQGVTDPEQKRKIIGKLFIEEFEKAVNNIDIDINKTFLLQGTLYPDIIESKCSKNLSDTIKTHHNVGGLPKNLKFKLFEPFKYLFKDDVKTLSRELNLPEEITNRHPFPGPGLAIRVIGEINKHKLNILREVDDIFINDLKQYGLYNQISQAFAVLLSSKSVGVRGDARSYDYVCVLRAVKTSSFMTANWYQIPYDILDKITTRILSEVKGVNRILYDVSSKPPATIEFE
notes: GMP synthetase of Plasmodium falciparum, native gene PF10_0123 (PlasmoDB); also called native enzyme; wild-type enzyme; source: E. coli (pQE30PfGMPS construct), purified (HisTrap HP, Superdex 200 SEC)
B2: PfGMPS_C89A (enzyme)
chain: B1 chain with C89A
notes: GMP synthetase of Plasmodium falciparum (PF10_0123) with the catalytic Cys89 of the GATase domain mutated to alanine; made with pETPfGMPS as template; this is a point mutant made on the plasmid pETPfGMPS; also called C89A single mutant; single mutant enzyme; source: E. coli BL21-CodonPlus(DE3)-RIL (pETPfGMPS mutant construct), purified (HisTrap HP, Superdex 200 SEC)

Biological target: the molecule itself
Assay: SAXS; samples in solution at ~12 mg/mL, beamline BM29 (ESRF), ATSAS analysis, ab initio shapes

Protein	stoichiometry N
B1	2
B2	2
